Test results reported in patent US20160046943, “Interferon Production Using Short RNA Duplexes” (YALE UNIVERSITY, published 2016).
Like-named read-outs stand apart in the source and are kept apart here.

Tests used:
RIG-I (full length) [1] = molecular target: T1, RIG-I (full length) (Homo sapiens, UniProt O95786 O95786:1-925); parameters: K half: unit not given here; conditions: 5'-OH
T1 sequence: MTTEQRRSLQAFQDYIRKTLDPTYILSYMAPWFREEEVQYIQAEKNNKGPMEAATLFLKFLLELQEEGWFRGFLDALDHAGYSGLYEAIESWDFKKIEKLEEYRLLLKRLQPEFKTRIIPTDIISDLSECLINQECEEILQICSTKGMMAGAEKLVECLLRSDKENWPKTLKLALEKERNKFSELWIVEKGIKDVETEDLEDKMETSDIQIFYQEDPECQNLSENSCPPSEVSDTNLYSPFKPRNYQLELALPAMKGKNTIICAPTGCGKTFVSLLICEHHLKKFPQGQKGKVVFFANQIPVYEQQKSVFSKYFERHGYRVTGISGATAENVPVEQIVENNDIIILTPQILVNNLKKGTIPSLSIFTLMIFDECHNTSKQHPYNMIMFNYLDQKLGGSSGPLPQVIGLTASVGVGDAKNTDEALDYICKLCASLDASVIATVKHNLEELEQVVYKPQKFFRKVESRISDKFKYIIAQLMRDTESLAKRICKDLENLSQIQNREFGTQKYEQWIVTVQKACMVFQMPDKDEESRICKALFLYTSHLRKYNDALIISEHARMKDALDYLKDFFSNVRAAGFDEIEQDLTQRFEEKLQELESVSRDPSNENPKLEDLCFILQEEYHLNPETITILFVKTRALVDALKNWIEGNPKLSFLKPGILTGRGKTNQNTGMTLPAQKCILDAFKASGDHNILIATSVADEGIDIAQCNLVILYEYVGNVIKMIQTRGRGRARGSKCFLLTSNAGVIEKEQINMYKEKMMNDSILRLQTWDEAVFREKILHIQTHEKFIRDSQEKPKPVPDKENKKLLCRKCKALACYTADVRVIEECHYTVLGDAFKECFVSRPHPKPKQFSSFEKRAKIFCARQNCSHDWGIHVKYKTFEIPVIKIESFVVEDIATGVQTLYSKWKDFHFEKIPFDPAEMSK

RIG-I (full length) [2] = molecular target: T1, RIG-I (full length); conditions: Km,RNA per estimated poly I:C strand, ATPase assay at 5 mM ATP
RIG-I (full length) [3] = molecular target: T1, RIG-I (full length); experiment: Km,RNA, ATPase assay at 5 mM ATP; SD 0.40; conditions: tags: pET-SUMO (His-SUMO vector, Ni-NTA purified), E. coli Rosetta II(DE3); hairpin, 8 bp, UUCG tetraloop, blunt end
Method: (§1) ATPase activity of RIG-I was measured with the NADH-coupled ATPase assay adapted from previously described protocols (Luo et al., 2011, Cell 147:409-422). Experiments were set up in 50 μl reaction volumes in 96 well format using Corning clear half-area flat bottom plates (#3695). Each 50 μl reaction contained 10 μl of 5×NADH enzyme buffer (1 mM NADH, 100 U of lactate dehydrogenase/mL, 500 U/mL of pyruvate kinase/mL, and 2.5 mM phosphoenolpyruvate), 5-10 nM of RIG-I, 5 μl of varying amounts of either RNA or ATP, and a remaining volume of 25 mM 3-(N-morpholino)propanesulfonic acid (MOPS) pH 7.4, 150 mM KCl, 2 mM DTT, and 0.1% Triton X-100. The rate of ATP hydrolysis was indirectly determined by monitoring the loss of NADH by reading the absorbance at 340 nm using a Biotek Synergy H1 plate reader.
(§2) To more precisely define the minimal duplex length for enzymatic activation of RIG-I, the steady-state kinetic parameters for RIG-I activation by RNA hairpins and double-stranded duplexes ranging in size from 8 to 30 base pairs, was measured with and without a 5′triphosphate (RNAs listed in Table 2). […]

RIG-I (full length) [4] = molecular target: T1, RIG-I (full length); experiment: Km,RNA, ATPase assay at 5 mM ATP; SD 0.50; conditions: tags: pET-SUMO (His-SUMO vector, Ni-NTA purified), E. coli Rosetta II(DE3)
Method: as §1, §2

RIG-I (full length) [5] = molecular target: T1, RIG-I (full length); experiment: Km,RNA, ATPase assay at 5 mM ATP; SD 0.20; conditions: tags: pET-SUMO (His-SUMO vector, Ni-NTA purified), E. coli Rosetta II(DE3); palindromic blunt duplex
Method: as §1, §2

RIG-I (full length) [6] = molecular target: T1, RIG-I (full length); experiment: Km,RNA, ATPase assay at 5 mM ATP; SD 1.3; conditions: tags: pET-SUMO (His-SUMO vector, Ni-NTA purified), E. coli Rosetta II(DE3); palindromic blunt duplex
Method: as §1, §2

RIG-I (full length) [7] = molecular target: T1, RIG-I (full length); experiment: Km,RNA, ATPase assay at 5 mM ATP; SD 0.10; conditions: tags: pET-SUMO (His-SUMO vector, Ni-NTA purified), E. coli Rosetta II(DE3); palindromic blunt duplex
Method: as §1, §2

RIG-I (full length) [8] = molecular target: T1, RIG-I (full length); experiment: Km,RNA, ATPase assay at 5 mM ATP; SD 1.0; conditions: tags: pET-SUMO (His-SUMO vector, Ni-NTA purified), E. coli Rosetta II(DE3)
Method: as §1
To more precisely define the minimal duplex length for enzymatic activation of RIG-I, the steady-state kinetic parameters for RIG-I activation by RNA hairpins and double-stranded duplexes ranging in size from 8 to 30 base pairs, was measured with and without a 5′triphosphate (RNAs listed in Table 2). In order to evaluate the respective roles of ATP and RNA in activation of the RIG-I:RNA complex, the Michaelis constant for ATP (K_{m,ATP}) at saturating RNA (500 nM) and the Michaelis constant for RNA (K_{m,RNA}) at saturating ATP (5 mM) was measured for each RNA construct (kcat, K_{m,ATP} and K_{m,RNA} summary in Table 4).

RIG-I (full length) [9] = molecular target: T1, RIG-I (full length); experiment: Km,RNA, ATPase assay at 5 mM ATP; SD 1.1; conditions: tags: pET-SUMO (His-SUMO vector, Ni-NTA purified), E. coli Rosetta II(DE3); palindromic blunt duplex
Method: as §1, §2

RIG-I (full length) [10] = molecular target: T1, RIG-I (full length); experiment: Km,RNA, ATPase assay at 5 mM ATP; SD 3.4; conditions: tags: pET-SUMO (His-SUMO vector, Ni-NTA purified), E. coli Rosetta II(DE3); palindromic blunt duplex
Method: as §1, §2

RIG-I (full length) [11] = molecular target: T1, RIG-I (full length); experiment: Km,RNA, ATPase assay at 5 mM ATP; SD 15; conditions: tags: pET-SUMO (His-SUMO vector, Ni-NTA purified), E. coli Rosetta II(DE3); palindromic blunt duplex
Method: as §1, §2

RIG-I (full length) [12] = molecular target: T1, RIG-I (full length); experiment: Km,RNA (apparent binding constant), ATPase assay at 5 mM ATP, 5 nM RIG-I, MOPS pH 7.4, 150 mM KCl; SD 0.20; conditions: tags: pET-SUMO (His-SUMO vector, Ni-NTA purified), E. coli Rosetta II(DE3); palindromic blunt duplex
Method: as §1, §2

RIG-I (full length) [13] = molecular target: T1, RIG-I (full length); experiment: Km,RNA, ATPase assay at 5 mM ATP; SD 1.5; conditions: tags: pET-SUMO (His-SUMO vector, Ni-NTA purified), E. coli Rosetta II(DE3); palindromic blunt duplex
Method: as §1, §2

LMW poly I:C showed an activity (RIG-I (full length) [1]; ATPase kcat, Km,ATP 690 uM) of 4.9 s⁻¹ and a K half (RIG-I (full length) [1]; Km,RNA, ATPase assay at 5 mM ATP, SD 1.1) of 2.4.

Molecule poly I:C fraction A1 (~500 bp) has a K half (RIG-I (full length) [2]) of 20 nM.

Molecule poly I:C fraction A7 (~25 bp) has a K half (RIG-I (full length) [2]) of 20 nM.

GGCGCGGCUUCGGCCGCGCC (ssRNA, 5'-triphosphate) [5'ppp8L] was tested, and the “apparent K (half saturation)” value (RIG-I (full length) [3]) was 5.16 nM.

In the case of GGAUCGAUCGAUCGAUCGGCUUCGGCCGAUCGAUCGAUCGAUCC (ssRNA, 5'-triphosphate) [5'ppp20L], the “apparent K (half saturation)” value (RIG-I (full length) [4]) is reported as 10.1 nM.

In the case of GGACGUACGUUUCGACGUACGUCC (ssRNA, 5'-triphosphate) [5'ppp10L], the “apparent K (half saturation)” value (RIG-I (full length) [4]; hairpin, 10 bp, UUCG tetraloop, blunt end) is reported as 4.46 nM.

B1: 5'pppGC12 (dsRNA)
RNA 1: GGCGCGCGCGCC
RNA 2: GGCGCGCGCGCC
modifications: 5'-triphosphate
B1 was tested, and the “apparent K (half saturation)” value (RIG-I (full length) [5]) was 2.33 nM.

B2: GC14 (dsRNA)
RNA 1: GCGCGCGCGCGCGC
RNA 2: GCGCGCGCGCGCGC
modifications: 5'-OH
For B2, the “apparent K (half saturation)” value (RIG-I (full length) [6]) was 23.2 nM.

B3: 5'pppCM12 (dsRNA)
RNA 1: GGACGUACGUCC
RNA 2: GGACGUACGUCC
modifications: 5'-triphosphate
For B3, the “apparent K (half saturation)” value (RIG-I (full length) [7]) was 2.62 nM.

B4: GC12 (dsRNA)
RNA 1: GCGCGCGCGCGC
RNA 2: GCGCGCGCGCGC
modifications: 5'-OH
B4 was tested, and the “apparent K (half saturation)” value (RIG-I (full length) [8]; palindromic blunt duplex) was 13.1 nM.

B5: GC22 (dsRNA)
RNA 1: GCGCGCGCGCGCGCGCGCGCGC
RNA 2: GCGCGCGCGCGCGCGCGCGCGC
modifications: 5'-OH
With B5 the “apparent K (half saturation)” value (RIG-I (full length) [9]) was 27.3 nM.

B6: 5'ppp30L (ssRNA)
RNA: GGAUCGAUCGAUCGAUCGGCAUCGAUCGGCUUCGGCCGAUCGAUGCCGAUCGAUCGAUCGAUCC
modifications: 5'-triphosphate
For B6, the “apparent K (half saturation)” value (RIG-I (full length) [8]; hairpin, 30 bp, UUCG tetraloop, blunt end) was 10.8 nM.

B7: GC18 (dsRNA)
RNA 1: GCGCGCGCGCGCGCGCGC
RNA 2: GCGCGCGCGCGCGCGCGC
modifications: 5'-OH
With B7 the “apparent K (half saturation)” value (RIG-I (full length) [10]) was 26.7 nM.

B8: GC8 (dsRNA)
RNA 1: GCGCGCGC
RNA 2: GCGCGCGC
modifications: 5'-OH
With B8 the “apparent K (half saturation)” value (RIG-I (full length) [11]) was 91.4 nM.

B9: 5'pppGC22 (dsRNA)
RNA 1: GGCGCGCGCGCGCGCGCGCGCC
RNA 2: GGCGCGCGCGCGCGCGCGCGCC
modifications: 5'-triphosphate
With B9 the “apparent K (half saturation)” value (RIG-I (full length) [8]; palindromic blunt duplex, two 5'ppp ends) was 3.58 nM.

B10: 5'pppGC10 (dsRNA)
RNA 1: GGCGCGCGCC
RNA 2: GGCGCGCGCC
modifications: 5'-triphosphate
With B10 the “apparent K (half saturation)” value (RIG-I (full length) [12]) was 1.16 nM.

B11: GC10 (dsRNA)
RNA 1: GCGCGCGCGC
RNA 2: GCGCGCGCGC
modifications: 5'-OH
In the case of B11, the “apparent K (half saturation)” value (RIG-I (full length) [13]) is reported as 24.4 nM.
